Among the data in PMC9926225 are stoichiometry N and stoichiometry N (DinI molecules per RecA protomer) values, retold here.

In assay [1] the target is NTD truncated λCI (K192A, residues 101 to 236), C-hexahistidine-tagged (λ phage). Put plainly: SEC.
Assay [2] has as its target RecA (1 to 335), N-heptahistidine-tagged (Escherichia coli). In words: cryo-EM structure.

RecA (1 to 335), N-heptahistidine-tagged (Escherichia coli), sequence (A7ZQC8 2-336 limits assumed): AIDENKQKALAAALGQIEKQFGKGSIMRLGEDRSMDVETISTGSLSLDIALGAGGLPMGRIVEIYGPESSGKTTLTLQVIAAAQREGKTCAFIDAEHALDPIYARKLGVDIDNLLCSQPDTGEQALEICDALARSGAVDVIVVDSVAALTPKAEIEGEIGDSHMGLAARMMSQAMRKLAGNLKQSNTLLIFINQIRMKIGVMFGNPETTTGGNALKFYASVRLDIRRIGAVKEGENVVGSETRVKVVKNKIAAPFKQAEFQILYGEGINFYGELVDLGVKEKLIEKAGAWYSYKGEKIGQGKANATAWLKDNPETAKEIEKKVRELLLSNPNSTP

For “NTD truncated λCI (K192A, residues 101 to 236), C-hexahistidine-tagged (domain or fragment)”, in assay [1], the stoichiometry N (commonly the number of molecules, sites or subunits per partner or assembly) was determined as 2.

B1: DinI (natural protein)
chain: MRIEVTIAKTSPLPAGAIDALAGELSRRIQYAFPDNEGHVSVRYAAANNLSVIGATKEDKQRISEILQETWESADDWFVSE
Consider B1, for which, in assay [2], the stoichiometry N (DinI molecules per RecA protomer) was 0.5.
